The assay concerns the target T1, CyaY, the frataxin homolog of Escherichia coli (E. coli), P27838.
T1 chain: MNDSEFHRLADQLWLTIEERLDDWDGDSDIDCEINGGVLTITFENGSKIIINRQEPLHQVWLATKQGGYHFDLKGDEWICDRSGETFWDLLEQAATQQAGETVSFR
Nature of the assay: native MS; CyaY above 35 uM in the titration of SufSE; charge states of CyaY multimers (Fig. S4). The note with it: remark: other sources report otherwise.

B1: CyaY, the frataxin homolog of Escherichia coli, P27838 1-106 (natural protein)
chain: T1 chain
Usually stoichiometry N stands for the number of molecules, sites or subunits per partner or assembly. On to B1, for which the stoichiometry N was 2 to 3.

(Values after PMC11446229.)
